Measurements as given in US20150125849A1.

Tests used:
[1] = target: GFP with His-tag at the C-extreme (pETsa-GFP-his) [GFP: P42212]; assay: detection of diluted antigen with 5 µg purified IgG (data not shown)
[2] = target: GFP with His-tag at the N-extreme (pETsa-his-GFP) [GFP: P42212]; assay: as above

His-tag MAb (Invitrogen, Carlsbad, USA) (antibody)
antigen dilution at which detected [1]: 32 × dilution | antigen dilution at which detected [2]: 32 × dilution
